According to the supplement of paper PMC11316812:
± gives the standard deviation of the averaged measurements.

Legend:
MCF7 = assay: percentage of EdU-negative (G0-arrested) nuclei per well, 72 h; higher = more G0 arrest; conditions: reference: sequence is the full UniProt precursor, the tested protein was the secreted form or ectodomain
hTERT-HMEC = assay: as above; conditions: reference: sequence is the full UniProt precursor, the tested protein was the secreted form or ectodomain
[1] = protein concentration 0.0125 µM
[2] = protein concentration 0.0225 µM
[3] = protein concentration 0.0357143 µM
[4] = protein concentration 0.357143 µM
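Also: secreted proteins added to cultured cells, EdU pulse at the end, nuclei found by Hoechst imaging, EdU status from nuclear versus surrounding ring intensity ratio, PBS as neutral control.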

Row | Sequence | percentage of EdU-negative (MCF7; [2]) | percentage of EdU-negative (MCF7; protein concentration 0.225 µM) | percentage of EdU-negative (hTERT-HMEC; [2]) | percentage of EdU-negative (hTERT-HMEC; protein concentration 0.225 µM) | further results
1 | MPRSCCSRSGALLLALLLQASMEVRGWCLESSQCQDLTTESNLLECIRACKPDLSAETPMFPGNGDEQPLTENPRKYVMGHFRWDRFGRRNSSSSGSSGAGQKREDVSAGEDCGPLPEGGPEPRSDGAKPGPREGKRSYSMEHFRWGKPVGKKRRPVKVYPNGAEDESAEAFPLEFKRELTGQRLREGDGPDGPADDGAGAQADLEHSLLVAAEKKDEGPYRMEHFRWGSPPKDKRYGGFMTSEKSQTPLVTLFKNAIIKNAYKKGE |  |  |  |  | percentage of EdU-negative (MCF7; [1]): 24.3 ± 6.1%; percentage of EdU-negative (MCF7; protein concentration 0.125 µM): 24.787 ± 0.0019%; percentage of EdU-negative (hTERT-HMEC; [1]): 4.65 ± 0.64%; percentage of EdU-negative (hTERT-HMEC; protein concentration 0.125 µM): 8.66 ± 0.81%
2 | MKLVFLVLLFLGALGLCLAGRRRSVQWCAVSQPEATKCFQWQRNMRKVRGPPVSCIKRDSPIQCIQAIAENRADAVTLDGGFIYEAGLAPYKLRPVAAEVYGTERQPRTHYYAVAVVKKGGSFQLNELQGLKSCHTGLRRTAGWNVPIGTLRPFLNWTGPPEPIEAAVARFFSASCVPGADKGQFPNLCRLCAGTGENKCAFSSQEPYFSYSGAFKCLRDGAGDVAFIRESTVFEDLSDEAERDEYELLCPDNTRKPVDKFKDCHLARVPSHAVVARSVNGKEDAIWNLLRQAQEKFGKDKSPKFQLFGSPSGQKDLLFKDSAIGFSRVPPRIDSGLYLGSGYFTAIQNLRKSEEEVAARRARVVWCAVGEQELRKCNQWSGLSEGSVTCSSASTTEDCIALVLKGEADAMSLDGGYVYTAGKCGLVPVLAENYKSQQSSDPDPNCVDRPVEGYLAVAVVRRSDTSLTWNSVKGKKSCHTAVDRTAGWNIPMGLLFNQTGSCKFDEYFSQSCAPGSDPRSNLCALCIGDEQGENKCVPNSNERYYGYTGAFRCLAENAGDVAFVKDVTVLQNTDGNNNEAWAKDLKLADFALLCLDGKRKPVTEARSCHLAMAPNHAVVSRMDKVERLKQVLLHQQAKFGRNGSDCPDKFCLFQSETKNLLFNDNTECLARLHGKTTYEKYLGPQYVAGITNLKKCSTSPLLEACEFLRK [E7EQB2] |  |  |  |  | percentage of EdU-negative (MCF7; protein concentration 0.01 µM): 22.5 ± 0.39%; percentage of EdU-negative (MCF7; protein concentration 0.1 µM): 24.6 ± 0.5%; percentage of EdU-negative (hTERT-HMEC; protein concentration 0.01 µM): 5.27 ± 0.58%; percentage of EdU-negative (hTERT-HMEC; protein concentration 0.1 µM): 5.87 ± 0.35%
3 | MRMLLALLALSAARPSASAESHWCYEVQAESSNYPCLVPVKWGGNCQKDRQSPINIVTTKAKVDKKLGRFFFSGYDKKQTWTVQNNGHSVMMLLENKASISGGGLPAPYQAKQLHLHWSDLPYKGSEHSLDGEHFAMEMHIVHEKEKGTSRNVKEAQDPEDEIAVLAFLVEAGTQVNEGFQPLVEALSNIPKPEMSTTMAESSLLDLLPKEEKLRHYFRYLGSLTTPTCDEKVVWTVFREPIQLHREQILAFSQKLYYDKEQTVSMKDNVRPLQQLGQRTVIKSGAPGRPLPWALPALLGPMLACLLAGFLR | 24.9 ± 1.8% | 25.5 ± 1.3% | 5.11 ± 0.088% | 7.91 ± 0.34% | 
4 | MDRRSRAQQWRRARHNYNDLCPPIGRRAATALLWLSCSIALLRALATSNARAQQRAAAQQRRSFLNAHHRSGAQVFPESPESESDHEHEEADLELSLPECLEYEEEFDYETESETESEIESETDFETEPETAPTTEPETEPEDDRGPVVPKHSTFGQSLTQRLHALKLRSPDASPSRAPPSTQEPQSPREGEELKPEDKDPRDPEESKEPKEEKQRRRCKPKKPTRRDASPESPSKKGPIPIRRH | 27.2 ± 2.3% | 25.8 ± 4.4% | 3.95 ± 0.71% | 5.43 ± 0.11% | 
5 | MKRVLVLLLAVAFGHALERGRDYEKNKVCKEFSHLGKEDFTSLSLVLYSRKFPSGTFEQVSQLVKEVVSLTEACCAEGADPDCYDTRTSALSAKSCESNSPFPVHPGTAECCTKEGLERKLCMAALKHQPQEFPTYVEPTNDEICEAFRKDPKEYANQFMWEYSTNYGQAPLSLLVSYTKSYLSMVGSCCTSASPTVCFLKERLQLKHLSLLTTLSNRVCSQYAAYGEKKSRLSNLIKLAQKVPTADLEDVLPLAEDITNILSKCCESASEDCMAKELPEHTVKLCDNLSTKNSKFEDCCQEKTAMDVFVCTYFMPAAQLPELPDVELPTNKDVCDPGNTKVMDKYTFELSRRTHLPEVFLSKVLEPTLKSLGECCDVEDSTTCFNAKGPLLKKELSSFIDKGQELCADYSENTFTEYKKKLAERLKAKLPDATPTELAKLVNKHSDFASNCCSINSPPLYCDSEIDAELKNIL |  |  |  |  | percentage of EdU-negative (MCF7; [3]): 25.9 ± 0.66%; percentage of EdU-negative (MCF7; [4]): 27.2 ± 1.1%; percentage of EdU-negative (hTERT-HMEC; [3]): 6.02 ± 1.8%; percentage of EdU-negative (hTERT-HMEC; [4]): 16.1 ± 0.49%
6 | MRPLLVLLLLGLAAGSPPLDDNKIPSLCPGHPGLPGTPGHHGSQGLPGRDGRDGRDGAPGAPGEKGEGGRPGLPGPRGDPGPRGEAGPAGPTGPAGECSVPPRSAFSAKRSESRVPPPSDAPLPFDRVLVNEQGHYDAVTGKFTCQVPGVYYFAVHATVYRASLQFDLVKNGESIASFFQFFGGWPKPASLSGGAMVRLEPEDQVWVQVGVGDYIGIYASIKTDSTFSGFLVYSDWHSSPVFA [Q9BXJ0] | 23.7 ± 0.35% | 24.3 ± 0.42% | 5.51 ± 0.91% | 6.26 ± 0.1% | 
